Data taken from PMC10567701 (Nature Communications, 2023).
Where no end group is shown, it is not given here.

B1: LptD (natural protein, Escherichia coli, UniProt P31554 25-784, looked up)
chain: ADLASQCMLGVPSYDRPLVQGDTNDLPVTINADHAKGDYPDDAVFTGSVDIMQGNSRLQADEVQLHQKEAPGQPEPVRTVDALGNVHYDDNQVILKGPKGWANLNTKDTNVWEGDYQMVGRQGRGKADLMKQRGENRYTILDNGSFTSCLPGSDTWSVVGSEIIHDREEQVAEIWNARFKVGPVPIFYSPYLQLPVGDKRRSGFLIPNAKYTTTNYFEFYLPYYWNIAPNMDATITPHYMHRRGNIMWENEFRYLSQAGAGLMELDYLPSDKVYEDEHPNDDSSRRWLFYWNHSGVMDQVWRFNVDYTKVSDPSYFNDFDNKYGSSTDGYATQKFSVGYAVQNFNATVSTKQFQVFSEQNTSSYSAEPQLDVNYYQNDVGPFDTRIYGQAVHFVNTRDDMPEATRVHLEPTINLPLSNNWGSINTEAKLLATHYQQTNLDWYNSRNTTKLDESVNRVMPQFKVDGKMVFERDMEMLAPGYTQTLEPRAQYLYVPYRDQSDIYNYDSSLLQSDYSGLFRDRTYGGLDRIASANQVTTGVTSRIYDDAAVERFNISVGQIYYFTESRTGDDNITWENDDKTGSLVWAGDTYWRISERWGLRGGIQYDTRLDNVATSNSSIEYRRDEDRLVQLNYRYASPEYIQATLPKYYSTAEQYKNGISQVGAVASWPIADRWSIVGAYYYDTNANKQADSMLGVQYSSCCYAIRVGYERKLNGWDNDKQHAVYDNAIGFNIELRGLSSNYGLGTQEMLRSNILPYQNTL
notes: LptD, E. coli, UniProt P31554; mature protein (theoretical mass 87,080 Da); Untagged; Cysteines at 31, 173, 724 and 725 (C1 to C4); the mature oxidized form LptD^Ox has the disulfides C1-C3 and C2-C4; samples from ΔlptM cells also hold partially oxidized forms; also called LptD^CCCC; wild-type LptD; source: E. coli BW25113 (wild-type or ΔlptM), overproduced from pLptDE^His or pLptDEM^His; …
B3: LptE (natural protein)
chain: not shown
modifications: tri-acylated (mature and tri-acylated protein)
notes: LptE, E. coli, UniProt P0ADC1; mature and tri-acylated lipoprotein (theoretical mass 20,248 Da); Untagged; source: E. coli BW25113 ΔlptM, overproduced from pLptDEM^His; DDM-solubilized envelope fraction
B4: LptM^His (natural protein, Escherichia coli, UniProt P0ADN6 20-67, looked up)
chain: CGLKGPLYFPPADKNAPPPTKPVETQTQSTVPDKNDRATGDGPSQVNY
modifications: also: tri-acylated
notes: LptM (formerly YifL), E. coli, UniProt P0ADN6; mature and tri-acylated lipoprotein (theoretical mass with the tag 6,988 Da); also called C-terminally poly-histidine tagged version of E. coli LptM; YifL; source: E. coli BW25113 ΔlptM, overproduced from pLptDEM^His or pLptM^His; DDM-solubilized envelope fraction; not shown: poly-histidine, C-terminal, kept

How the values were obtained:
LptE [1] = target: B3; experiment: native MS; co-expressed and Ni-affinity co-purified complexes LptDE^His and LptDEM^His, ~10-20 μM in 200 mM ammonium acetate pH 7.4, 0.03% DDM; nano-electrospray, positive ion mode; settings: both partners purified
LptM^His = target: B4; experiment: as above; settings: both partners purified
LptD [2] = target: B1; experiment: pull-down; Ni-affinity purification of LptE^His from the DDM-solubilized envelope fraction of wild-type (lptM^+) cells with pLptDE^His; Ni-NTA 2 h at 4 °C, 50 mM Tris-HCl pH 8, 150 mM NaCl, DDM; SDS-PAGE or BN-PAGE, Coomassie staining or Western blotting; settings: partners not purified
LptD [3] = target: B1; experiment: HDX-MS; LPS translocon produced in the presence or absence of LptM, purified in detergent micelles; 20 μM protein diluted in deuterated buffer (20 mM MES pH 6.5, 200 mM NaCl), 20 °C, 0.5 to 30 min; pepsin digestion; settings: both partners purified
LptE [4] = target: B3; experiment: as above; settings: both partners purified

## B1
LptE [1]
  stoichiometry N: 1
LptM^His
  stoichiometry N: 1

B2: LptE^His (natural protein)
chain: not shown
modifications: tri-acylated (mature and tri-acylated protein)
notes: LptE, E. coli, UniProt P0ADC1; mature and tri-acylated lipoprotein (theoretical mass with the tag 21,348 Da); also called C-terminally poly-histidine tagged variant of LptE; source: E. coli BW25113 (wild-type or ΔlptM), overproduced from pLptDE^His or pLptDME^His; DDM-solubilized envelope fraction; not shown: poly-histidine, C-terminal, kept
LptD [2]
  binding result: binds

## B3
LptM^His
  stoichiometry N: 1

## B4
LptD [3]
  binding result: binds
LptE [4]
  binding result: binds
